From the supplement of paper PMC9112550, “Optimization of the antimicrobial peptide Bac7 by deep mutational scanning” (BMC Biology, 2022)

tested on: Escherichia coli TOP10; experiment: shrunken log2 fold change of peptide-encoding DNA abundance (4.5 h post-induction vs induction); higher = less antimicrobial activity (less host growth inhibition); conditions: time post-induction: 4.5 h; library: site-saturation at positions 5, 18, 19, 20
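Also: peptides expressed intracellularly from a pBAD plasmid library in pooled LB shake-flask culture, induced with 0.3% L-arabinose, DNA abundance read by NGS, three biological replicates, DESeq2 with apeglm shrinkage.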

Sequence | shrunken log2 fold change
RRIRQRPPRLPRPRPRPGWCPRP | 0.0842
RRIRSRPPRLPRPRPRPKFRPRP | -0.183
RRIRNRPPRLPRPRPRPNHHPRP | -0.701
RRIRIRPPRLPRPRPRPMLCPRP | -0.0741
RRIRHRPPRLPRPRPRPAVPPRP | 0.0133
RRIRNRPPRLPRPRPRPVPNPRP | -0.0122
RRIRYRPPRLPRPRPRPQSHPRP | -0.416
RRIRQRPPRLPRPRPRPHQRPRP | 0.153
RRIRMRPPRLPRPRPRPTYIPRP | -1.08
RRIRFRPPRLPRPRPRPRSGPRP | 0.444
RRIRVRPPRLPRPRPRPVHDPRP | -0.745
RRIRTRPPRLPRPRPRPELYPRP | -0.258
RRIRGRPPRLPRPRPRPFGLPRP | -0.0119
RRIRIRPPRLPRPRPRPFMFPRP | -0.745
RRIRKRPPRLPRPRPRPKSSPRP | 0.202
RRIRHRPPRLPRPRPRPMQMPRP | -0.00907
RRIRQRPPRLPRPRPRPGFAPRP | 0.249
RRIRTRPPRLPRPRPRPSMLPRP | -0.204
RRIRCRPPRLPRPRPRPTHFPRP | 0.526
RRIRSRPPRLPRPRPRPQQDPRP | -0.164
RRIRPRPPRLPRPRPRPKNRPRP | 0.00526
RRIRPRPPRLPRPRPRPSTRPRP | -0.0318

Sequence | shrunken log2 fold change
RRIRARPPRLPRPRPRPTQAPRP | 1.06
RRIRARPPRLPRPRPRPLWRPRP | 0.24
RRIRERPPRLPRPRPRPCHGPRP | -0.989
RRIRHRPPRLPRPRPRPYGHPRP | -0.551
RRIRDRPPRLPRPRPRPRKCPRP | -0.0114
RRIRGRPPRLPRPRPRPARNPRP | 0.51
RRIRGRPPRLPRPRPRPYISPRP | -0.325
RRIRMRPPRLPRPRPRPEAWPRP | 2.15
RRIRQRPPRLPRPRPRPICWPRP | 0.0153
RRIRVRPPRLPRPRPRPGKHPRP | -0.391
RRIRRRPPRLPRPRPRPEGSPRP | 0.223
RRIRYRPPRLPRPRPRPPFHPRP | -0.589
RRIRNRPPRLPRPRPRPKWFPRP | 0.00131
RRIRSRPPRLPRPRPRPEWNPRP | 0.119
RRIRNRPPRLPRPRPRPKKMPRP | -0.233
RRIRVRPPRLPRPRPRPEDNPRP | -0.184
RRIRVRPPRLPRPRPRPDFFPRP | -0.0229
RRIRDRPPRLPRPRPRPWCTPRP | 0.107
RRIRVRPPRLPRPRPRPGHQPRP | -0.0671
RRIRNRPPRLPRPRPRPYILPRP | -1.07
RRIRERPPRLPRPRPRPAKNPRP | -0.0998
RRIRARPPRLPRPRPRPTLTPRP | 1.08

Sequence | shrunken log2 fold change
RRIRMRPPRLPRPRPRPCFLPRP | -0.117
RRIRMRPPRLPRPRPRPSPCPRP | 0.18
RRIRGRPPRLPRPRPRPHWTPRP | 0.00915
RRIRERPPRLPRPRPRPLQWPRP | 0.499
RRIRERPPRLPRPRPRPVPAPRP | 0.224
RRIRWRPPRLPRPRPRPTFHPRP | 0.00721
RRIRFRPPRLPRPRPRPNIPPRP | -0.67
RRIRFRPPRLPRPRPRPEVSPRP | -0.149
RRIRMRPPRLPRPRPRPFTIPRP | -0.386
RRIRNRPPRLPRPRPRPYNHPRP | -1.85
RRIRARPPRLPRPRPRPVDPPRP | 0.291
RRIRCRPPRLPRPRPRPDIKPRP | -0.336
RRIRVRPPRLPRPRPRPNRWPRP | -0.0283
RRIRFRPPRLPRPRPRPTYPPRP | -0.497
RRIRPRPPRLPRPRPRPVQRPRP | 0.0521
RRIRRRPPRLPRPRPRPNFHPRP | 0.75
RRIRGRPPRLPRPRPRPDYYPRP | -0.0926
RRIRPRPPRLPRPRPRPHTIPRP | -0.39
RRIRRRPPRLPRPRPRPIAIPRP | 0.108
RRIRMRPPRLPRPRPRPNYFPRP | 0.0511
RRIRARPPRLPRPRPRPFDIPRP | -0.127
RRIRYRPPRLPRPRPRPDGMPRP | 0.0112

Sequence | shrunken log2 fold change
RRIRYRPPRLPRPRPRPRDPPRP | 0.271
RRIRLRPPRLPRPRPRPQDMPRP | -0.169
RRIRCRPPRLPRPRPRPYPQPRP | -0.595
RRIRYRPPRLPRPRPRPDDNPRP | 0.0238
RRIRERPPRLPRPRPRPWADPRP | -0.00088
RRIRERPPRLPRPRPRPKGCPRP | -0.0587
RRIRIRPPRLPRPRPRPDWWPRP | -0.00879
RRIRARPPRLPRPRPRPFHRPRP | 0.206
RRIRSRPPRLPRPRPRPPLDPRP | 0.289
RRIRMRPPRLPRPRPRPPMSPRP | -0.114
RRIRWRPPRLPRPRPRPIEPPRP | 0.0341
RRIRWRPPRLPRPRPRPVIIPRP | -0.219
RRIRLRPPRLPRPRPRPVTEPRP | 0.0237
RRIRHRPPRLPRPRPRPPLHPRP | 0.0208
RRIRERPPRLPRPRPRPFKPPRP | -0.22
RRIRQRPPRLPRPRPRPRMPPRP | 0.216
RRIRPRPPRLPRPRPRPEVKPRP | -0.00169
RRIRSRPPRLPRPRPRPSIEPRP | -0.013
RRIRKRPPRLPRPRPRPKRIPRP | 0.0395
RRIRDRPPRLPRPRPRPHHHPRP | -0.505
RRIRYRPPRLPRPRPRPAVKPRP | -0.0154
RRIRHRPPRLPRPRPRPKLSPRP | 0.0757

Sequence | shrunken log2 fold change
RRIRTRPPRLPRPRPRPWWPPRP | -0.0247
RRIRSRPPRLPRPRPRPNTEPRP | 0.121
RRIRGRPPRLPRPRPRPFLEPRP | 0.625
RRIRRRPPRLPRPRPRPIYPPRP | -0.2
RRIRMRPPRLPRPRPRPCPGPRP | -0.000588
RRIRQRPPRLPRPRPRPEWNPRP | -0.175
RRIRRRPPRLPRPRPRPYGWPRP | 0.0825
RRIRCRPPRLPRPRPRPQHPPRP | -0.132
RRIRPRPPRLPRPRPRPFPQPRP | 0.54
RRIRWRPPRLPRPRPRPPNIPRP | -0.446
RRIRTRPPRLPRPRPRPDEVPRP | -0.0587
RRIRLRPPRLPRPRPRPWTSPRP | -0.384
RRIRGRPPRLPRPRPRPAGWPRP | 1.15
RRIRWRPPRLPRPRPRPWWHPRP | 0.357
RRIRSRPPRLPRPRPRPFNEPRP | -0.19
RRIRERPPRLPRPRPRPFCEPRP | -0.0162
RRIRARPPRLPRPRPRPHLLPRP | -0.0598
RRIRWRPPRLPRPRPRPKCSPRP | 0.0308
RRIRHRPPRLPRPRPRPPMHPRP | -0.0169
RRIRYRPPRLPRPRPRPMQAPRP | -0.0122
RRIRMRPPRLPRPRPRPFEIPRP | 0.0739
